According to publication PMC9715718 (Nature Communications, 2022):

B1: PqsE (purified, affinity tag removed) (enzyme)
chain: MLRLSAPGQLDDDLCLLGDVQVPVFLLRLGEASWALVEGGISRDAELVWADLCRWVADPSQVHYWLITHKHYDHCGLLPYLCPRLPNVQVLASERTCQAWKSESAVRVVERLNRQLLRAEQRLPEACAWDALPVRAVADGEWLELGPRHRLQVIEAHGHSDDHVVFYDVRRRRLFCGDALGEFDEAEGVWRPLVFDDMEAYLESLERLQRLPTLLQLIPGHGGLLRGRLAADGAESAYTECLRLCRRLLWRQSMGESLDELSEELHRAWGGQSVDFLPGELHLGSMRRMLEILSRQALPLD
notes: not shown: His6, N-terminal, cleaved
B2: RhlR purified in the presence of mBTL (natural protein)
chain: MRNDGGFLLWWDGLRSEMQPIHDSQGVFAVLEKEVRRLGFDYYAYGVRHTIPFTRPKTEVHGTYPKAWLERYQMQNYGAVDPAILNGLRSSEMVVWSDSLFDQSRMLWNEARDWGLCVGATLPIRAPNNLLSVLSVARDQQNISSFEREEIRLRLRCMIELLTQKLTDLEHPMLMSNPVCLSHREREILQWTADGKSSGEIAIILSISESTVNFHHKNIQKKFDAPNKTLAAAYAAALGLI
notes: RhlR, LuxR-type transcription factor of P. aeruginosa PA14/PAO1, 241 residues; also called RhlR:mBTL; non-tagged RhlR; source: E. coli BL21 CodonPlus (DE3), purified in the presence of mBTL
B3: RhlR-ATTO488 (natural protein)
chain: MRNDGGFLLWWDGLRSEMQPIHDSQGVFAVLEKEVRRLGFDYYAYGVRHTIPFTRPKTEVHGTYPKAWLERYQMQNYGAVDPAILNGLRSSEMVVWSDSLFDQSRMLWNEARDWGLCVGATLPIRAPNNLLSVLSVARDQQNISSFEREEIRLRLRCMIELLTQKLTDLEHPMLMSNPVCLSHREREILQWTADGKSSGEIAIILSISESTVNFHHKNIQKKFDAPNKTLAAAYAAALGLI
modifications: conjugated with ATTO488-maleimid (site not stated)
notes: RhlR, LuxR-type transcription factor of P. aeruginosa PA14/PAO1, 241 residues; m4 after labelling; 'non-tagged'; holds mBTL

Tests used:
[1] = molecular target: the molecule itself; experiment: SEC-MALS; Superdex 200 Increase column in SEC buffer, 40-150 µg of protein applied
[2] = molecular target: T1, PqsE-E187R (Pseudomonas aeruginosa, UniProt P20581, E187R); experiment: MST; PqsE diluted 1:1 from 10 µM, RhlR-ATTO488 at 20 nM; 50 mM Tris pH 8.0, 300 mM NaCl, 5% glycerol, 50 µM mBTL, 0.05% Tween; 25 °C; settings: both partners purified
T1 construct: source: E. coli BL21 CodonPlus (DE3), purified; not shown: His6, N-terminal, cleaved

Binder | stoichiometry N [1] | Kd [2]
B1 | 2 | 
B2 | 2 | 
B3 |  | 13.8 ± 3.9 µM
